Data as given in the DeepSol protein solubility set.

Experiment: soluble on expression in E. coli; label from the status in PepcDB or PDB records

Row | Sequence | soluble on expression in E. coli
1 | EQIVAAYDNSLLYTDHFLVRTIGMLRDMSDYDTAMIYLSDHGESLGEKGLYLHGMPYAIAPVEQTRVPMVIWFSKQFVQSRQIDLNCVHQRARQYADHDNLFSSVLGLMQVKTALYERPHDLFATCEK | not soluble
2 | ERFAREPMAAGHRMWQMAGLKAQRAQTDVNNKKAAFDAAAKEKSDADVALSSALERRKQKENKEKDAKAKLDKESKRNKPGKATGKGKPVNNKWLNNAGKDLGSPVPDRIANKLRDKEFKSFDDFRKKFWEEVSKDPELSKQFSRNNNDRMKVGKAPKTRTQDVSGKRTSFELHHEKPISQNGGVYDMDNISVVTPKRHIDIHRGK | soluble
3 | EVQDVNDSSWKEFVLESEVPVMVDFWAPWCGPCKLIAPVIDELAKEYSGKIAVYKLNTDEAPGIATQYNIRSIPTVLFFKNGERKESIIGAVPKSTLTDSIEKYL | soluble
4 | EVQLQQSGPELVKPGASVKISCKASGYSFTGHLLNWVKQSHGKNLEWIGLVHPHNGAITYNQKFKDKATLTVDRSSTTAYIELVRLTSNDSAVYYCAREDFRYHYSMDYWGQGTSVTVSSAKTTPPSVYPLAPVCGDTTGSSVTLGCLVKGYFPEPVTLTWNSGSLSSGVHTFPAVLQSDLYTLSSSVTVTSSTWPSQSVTCNVAHPASSTKVDKKIVPK | soluble
5 | EVVEDVLTNAIENGSSIQDIELTLKDMPQFDRERARTTAITEVLAASSAAQHESYAQSPAVKKKKWRHSGGKKNNPRENHIDLDGTVIGVDEEFQIPGSSETCMFPRDPKLSTRERVNCHCVLS | not soluble
6 | FAADLNSNLNLFYTPSEIVNGKTDTGVKPEAGQRIRVGGMVTVGSMVRDPNSLHVQFAVHDSLGGEILVTYDDLLPDLFREGQGIVAQGVLGEDGKLAATEVLAKHDENYMPPEVAEAMGQKHEKLDYSQQKSATQ | soluble
7 | FDGIFHTVKLLEPIQQSNADPAASFALFQQKFPNLKRVANSTLNTFDVYNLLSGWKSSLTAYLNQVLALQQRIKAADQIFPNQKETLPKDENPNIFEVLGAYGGKGFFPTLGSNGLHLPPQLFQFFRDFQLSSFTIKDFEVALVSEPDIVQHDKVRYAFQVQ | not soluble
8 | FFFTVAFLLVFSIAGLVEILPDFAKASRPTENLKPYSMLETAGRQLYIKESCNACHSQLVRPFKSETDRYGAYSLSGEYAYDRPFLWGSKRTGPDLHRVGDYRTTDWHENHMMDPTSVVPGSIMPAYKHMFKNAADIETAYAEAYTNKVVFGVPYDQPSGIKLGSFEEAKAAMFEEAKLIVEDMKNQDVKDALARGEIKEIVALIAYMNSLGQ | not soluble
9 | FHMNRVTGELGNRPLFSIADFTFYQGISCILGDNGVGKSTLFRSILQFQKYKGSITWKGSVLKKKKSLYRDLTGVVQEAEKQFIRVSLREELQLDGPDSERNQRIFQALRYFDLEQAVDKSPYQLSGGQQKILQLLTILTSKASVILLDEPFAGLDDRACHYFCKWIVEERNQGRSFLLISHRLDPLISVVDYWIEMTSQGLRHVKEVTITKPLTSQSSNTQGEVR | soluble
10 | FLETLAKVKKIFIDKTGTLTQKEVLLKEKIIYEEFDGRLLKSLLKVREHLAHSAILKSLDGDEVSLEKIEFFAHGLKASYQNETLLVGSLKFLGSMGVDIPMKESANIMVGFAKNETLCALFILEERLKANAKEVVQALQNKGLELEILSGDNESSVKECAKKLGISNYHAHLTPEDKAQTISSYKGVCAMVGDGNNDALALKQASVSLGFEKSALSKSACDILLLEEDLSLLKKAFDNAQKVYQVVLQ | not soluble
11 | FLPMSREEMDQLGWDACDFILVCGDAYIDHPSFVSGIIGRVLEAQGFRVGIIAQPDWTNVESFRVLGKPTIAWGVTAGNMDSMINRYTADRKIRSDDAYSPNNEPNKRPDRAATVYCQRCREAFPDVPVLLGGIEGSLRRIAHYDYWSDKVRRSILMDSKADLLMYGNGERAIIDVMHRLAKGEKIHEITDVRGTAFIINKHNKASKAQFIEIASNDVDTVGRVDPIINPYVMTEDIDGCEVEKEKGNSLAQYQNFQKEIVSKPVVREGDQLDKDTQIIQLKPVPSKAIKHKLPPRELAVIRLPSFEEVADDHVLYAHANRILHLETNPGNARALVQRHGERDVWINPPPIPLTTEEMDYVFDLPYARLPHSAYGDARFPAFDMIKFS | not soluble
12 | FPSGSAQLSARLYLPAGTPQVAVVINGATGVPREYYQHFATWLAAERGIACLTYDYRDFGHSLRGPLAASTATMSDWALIDMPAAYAEMQRRYPDLPLWVIGHSVGGMLGPLQPGIEPIARMICVCSGLVHHSDHPWPYQALARLFWFGHAPLLVKTLGYLPGRRIGFGSDLPPGVYWEWRRWCTTPGAYLPEMGDRLPQADWSRSGAPVDMFAFEDDTTIPPNCVWRLADVYGETVRRHLLHPRAFGLREIGHLGAFARRNAALWPRLIA | not soluble
13 | GAMAMPMIEYLERFSLKAKINNTTNLDYSRRFLEPFLRGINVVYTPPQSFQSAPRVYRVNGLSRAPASSETFEHDGKKVTIASYFHSRNYPLKFPQLHCLNVGSSIKSILLPIELCSIEEGQALNRKDGATQVANMIKYAATS | soluble
14 | GAMGMTTYLEFIQQNEERDGVRFSWNVWPSSRLEATRMVVPVAALFTPLKERPDLPPIQYEPVLCSRTTCRAVLNPLCQVDYRAKLWACNFCYQRNQFPPSYAGISELNQPAELLPQFSSIEYVVLRGPQMPLIFLYVVDTCMEDEDLQALKESMQMSLSLLPPTALVGLITFGRMVQVHELGCEGISKSYVFRGTKDLSAKQLQEMLGLSKVPVTQATRGPQVQQPPPSNRFLQPVQKIDMNLTDLLGELQRDPWPVPQGKRPLRSSGVALSIAVGLLECTFPNTGARIMMFIGGPATQGPGMVVGDELKTPIRSWHDIDKDNAKYVKKGTKHFEALANRAATTGHVIDIYACALDQTGLLEMKCCPNLTGGYMVMGDSFNTSLFKQTFQRVFTKDMHGQFKMGFGGTLEIKTSREIKISGAIGPCVSLNSKGPCVSENEIGTGGTCQWKICGLSPTTTLAIYFEVVNQHNAPIPQGGRGAIQFVTQYQHSSGQRRIRVTTIARNWADAQTQIQNIAASFDQEAAAILMARLAIYRAETEEGPDVLRWLDRQLIRLCQKFGEYHKDDPSSFRFSETFSLYPQFMFHLRRSSFLQVFNNSPDESSYYRHHFMRQDLTQSLIMIQPILYAYSFSGPPEPVLLDSSSILADRILLMDTFFQILIYHGETIAQWRKSGYQDMPEYENFRHLLQAPVDDAQEILHSRFPMPRYIDTEHGGSQARFLLSKVNPSQTHNNMYAWGQESGAPILTDDVSLQVFMDHLKKLAVSSAA | soluble
15 | GAMGNERRILEQKKHYFWLLLQRTYTKTGKPKPSTWDLASKELGESLEYKALGDEDNIRRQIFEDFKPE | soluble
16 | GAMVMRLGDAAELCYNLTSSYLQIAAESDSIIAQTQRAINTTKSILINETFPKWSPLNGEISFSYNGGKDCQVLLLLYLSCLWEYYIVKLSQSQFDGKFHRFPLTKLPTVFIDHDDTFKTLENFIEETSLRYSLSLYESDRDKCETMAEAFETFLQVFPETKAIVIGIRHTDPFGEHLKPIQKTDANWPDFYRLQPLLHWNLANIWSFLLYSNEPICELYRYGFTSLGNVEETLPNPHLRKDKNSTPLKLNFEWEIENRYKHNEVTKAEPIPIADEDLVKIENLHEDYYPGWYLVDDKLERAGRIKKK | soluble
17 | GASIRWEWRAARFADYLLQTRLKSRNNGLRVVYSITINLVPNHLDKRAHKYLGMVRQASRKYGVDESLILAIMQTESSFNPYAVSHADAMGLMQVVQHSAGRDVFRSQGKSGLPSRSYLFDPANNIDTGTAYLAMLNNVYLAGIDNPTSRRYAVITAYNGGAGSVLRVFSSDKVQAANIINSMAPGDVYQTLTTRHPSAESRRYLYKVNTAQKSYRRK | not soluble
18 | GASIVGSWVEPVPGLEGQVQGIKMEEGGVASSVNMATLVYESWKQEGTKLILTGKSIGNGQTIEFVDTMDIKRLTADSLVLDNQGMEIRYAKQK | soluble
19 | GDAAKGEKEFNKCKTCHSIIAPDGTEIVKGAKTGPNLYGVVGRTAGTYPEFKYKDSIVALGASGFAWTEEDIATYVKDPGAFLKEKLDDKKAKTEMAFKLAKGGEDVAAYLASVVK | soluble
20 | GDDYTQQQGEVEKQPNIDELKKRMEQSRLNKLRGDLDQLIESDPKLRALRPHLKIDLVQEGLRIQIIDSQNRPMFKTGSAEVEPYMRDILRAIAPVLNGIPNRISLAGHTDDFPYANGEKGYSNWELSADRANASRRELVAGGLDNGKVLRVVGMAATMRLSDRGPDDAINRRISLLVLNKQAEQAILHENAESQNEPVSVLQQHHHHHH | soluble
21 | GDLSNYFSNLSRLNCPQTIMTFRLFDPGFPFTDIEVNADIVLDRDAEKLPENWLQQLTGLSDTDVSMTAKGNVLSGQFLLPDFNLKLQDKSHAYLLLQGMDLEEVLRIQPQIGIYANGLFDGVLPVDLVDGKVSISGGQLAARAPGGLIAISGNPAVDQMRQSQPYLDFVFSALEHLAYSQLSSSFDMDNTGDATLLVEVKGRSQGIERPIHLNYSHEENMLQLFRSLQIGNDLQNRIEK | not soluble
22 | GFIDSHVHLFGGSVELDCLSLYGVKGLDAMRAAIQPYAQANPDDALVFCVMADYDILGTGHTLTRHDLDSILADRPLAMFAPDHHTVWANTAALEATGLLQGGEVDAGSLIVLGEDGLANGELLEPGAYGPILGLTRHGGREMLGLTTGKDPEPPATPDQRARDKDVIARGLAHCAAQGITGLHLMDGNRYQLELLTELEAEGRLLCRCEVPFHMKGTDPVERMTAEAPAMRAAYRGDKVRCNHLKMFIDGVIESGTALMLRPYPGELGANDNTGDEVFTQEHFTACCVEADRLGFQIAVHAIGDAGVRRTIDAFEAARRANGTRDSRHRIEHIEVIHPDDIPRLAELDIVASLQPGHAPRGHVFPPGAVGQYLHPDQIVGAYAWQTIRETGARVVFSTDWPVIPVDVMPSLRAAIAPLDLGPDWPDQSQSLMDTLASYTRDNAWVEFNEDSKGRLKVGMAADIAVLSHDLTALAPDDITQAAAMVTIMDGAVTY | not soluble
23 | GGQFIAFLRNITERKRAEALHRMGQDILLALNENEDMKEAIQRVLGLLRSATGVDAVGIRLQDGDDFPYFYQEGFPPDFLQKEDSIVARNKDGGVCRDSCGNVCLECTCGMVISGSTDHANPLFTPGGSAWTNDSFPYLEVPADQDPRTTPRDECIHQGYASIALIPIRAKGRIVGLLQLNDRRKGRFTREGIEALEDIAKNIGEAMLRKQAEEKLVASERFLRMLTNQLPGMVGYWDRD | not soluble
24 | GGSGERKISRIHLVSEPSITHFLQVSWEKTLESGFVITLTDGHSAWTGTVSESEISQEADDMAMEKGKYVGELRKALLSGAGPADVYTFNFSKESCYFFFEKNLKDVSFRLGSFNLEKVENPAEVIRELICYCLDTTAKNEKSIDDLEEKVAHAKEENLNMHQMLDQTLLELNNM | soluble
25 | GGSVLAERAGIDPTAILRDFDRGRTSTLPDGRTLREWDIVAVDKDFEIAPGIIFKGWSYNGRIPGPTLWAREGDALRIHFTNAGAHPHTIHFHGVHRATMDGTPGIGAGSIAPGQSFTYEFDATPFGTHLYHCHQSPLAPHIAKGLYGGFIVEPKEGRPPADDEMVMVMNGYNTDGGDDNEFYSVNGLPFHFMDFPVKVKQHELVRIHLINVLEYDPINSFHIHGNFFHYYPTGTMLTPSEYTDTISQVQGQRGILELRFPYPGKFMFHAHKTEFAELGWMGFFEVSA | soluble
26 | GGVVLRVVTVLEEPFVMVSENVLGKPKKYQGFSIDVLDALSNYLGFNYEIYVAPDHKYGSPQEDGTWNGLVGELVFKRADIGISALTITPDRENVVDFTTRYMDYSVGVLLRRGTSIQSLQDLSKQTDIPYGTVLDSAVYQHVRMKGLNPFERDSMYSQMWRMINRSNGSENNVLESQAGIQKVKYGNYAFVWDAAVLEYVAINDPDCSFYTVGNTVADRGYGIALQHGSPYRDVFSQRILELQQSGDMDILKHKWWPKNGQCDL | soluble
